Experimental data: the supplement of paper PMC10724198
± gives the standard deviation of the averaged measurements.

Test system: Saccharomyces cerevisiae
Assay: protein stability index of tFT-peptide fusion (C-terminal peptide) (PSI (0-1 scale)); higher = more stable (slower turnover)
Details: temperature: 30 C
Description: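 MPS profiling in S. cerevisiae of the yeast C-terminome library: the last 12 aa of each annotated ORF are fused to the C-terminus of a sfGFP-mCherry timer, after a GGGS linker. Cells are FACS-sorted into 8 mCherry/sfGFP bins and deep-sequenced. PSI runs from 0 (unstable) to 1 (stable); wild type and das1Δ backgrounds, two technical replicates each.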

[1] = genetic background: das1 deletion

Sequence | protein stability index [1] | protein stability index (genetic background: wild type)
DKEVLHVKADSL [FTR1 C-terminal 12 aa] | 0.7131 ± 0.0063 | 0.7 ± 0.047
AYFPQKYKHKYI [PRM6 C-terminal 12 aa] | 0.689 ± 0.0077 | 0.5656 ± 0.004
ISVYCGTTLEVM [TFC8 C-terminal 12 aa] | 0.44 ± 0.016 | 0.469 ± 0.013
ENDDHLYIFGRN [TIM18 C-terminal 12 aa] | 0.743 ± 0.033 | 0.731 ± 0.045
LSLTLVSIIKTA [COG2 C-terminal 12 aa] | 0.618 ± 0.025 | 0.193 ± 0.0064
EREVNPSARSLG [YLR184W C-terminal 12 aa] | 0.694 ± 0.028 | 0.684 ± 0.013
FVYERMKWNFGI [LEU5 C-terminal 12 aa] | 0.7059 ± 0.0044 | 0.275 ± 0.025
RIYDFFQSQNWM [ADA2 C-terminal 12 aa] | 0.7311 ± 0.0031 | 0.7058 ± 0.0047
SESLSDSDLEIL [RAD24 C-terminal 12 aa] | 0.7105 ± 0.0068 | 0.666 ± 0.0085
NGRYIDTEFESM [LCB4 C-terminal 12 aa] | 0.6854 ± 0.0012 | 0.681 ± 0.022
DEASGTPDEDML [GRR1 C-terminal 12 aa] | 0.6796 ± 0.0046 | 0.693 ± 0.034
QFQTLNNLYFAQ [IME4 C-terminal 12 aa] | 0.715 ± 0.02 | 0.673 ± 0.044
LELCKLASNNLE [RRI2 C-terminal 12 aa] | 0.6896 ± 0.0022 | 0.703 ± 0.04
ALKLRALEKLSF [NCS6 C-terminal 12 aa] | 0.711 ± 0.014 | 0.697 ± 0.037
EKWKINKKETVE [MOD5 C-terminal 12 aa] | 0.697 ± 0.03 | 0.7095 ± 0.0026
LSVTLGEGKYHH [CSG2 C-terminal 12 aa] | 0.685 ± 0.03 | 0.686 ± 0.034
VYGSERDIRAKF [TES1 C-terminal 12 aa] | 0.8078 ± 0.007 | 0.816 ± 0.068
FNVTKKSLTNHS [CDS1 C-terminal 12 aa] | 0.6978 ± 0.0048 | 0.742 ± 0.049
FLDDVLNGREII [YNL058C C-terminal 12 aa] | 0.708 ± 0.011 | 0.752 ± 0.015
VPEFLLHRRNSI [NTE1 C-terminal 12 aa] | – | 0.75 ± 0.05
VKNVLSKVVPPV [MTC2 C-terminal 12 aa] | 0.688 ± 0.0078 | 0.669 ± 0.04

Sequence | protein stability index [1] | protein stability index (genetic background: wild type)
TVRALNPFMKRV [SSD1 C-terminal 12 aa] | 0.689 ± 0.046 | 0.656 ± 0.039
GINAGEIEIPEN [RPL12A C-terminal 12 aa] | 0.692 ± 0.0082 | 0.698 ± 0.012
KGKSFILDSSKL [MDH3 C-terminal 12 aa] | 0.77184 ± 0.00047 | 0.733 ± 0.039
ILPIHQEDPANR [MEP1 C-terminal 12 aa] | 0.701 ± 0.011 | 0.686 ± 0.042
ANHNNQRAGYFL [SIT4 C-terminal 12 aa] | 0.699 ± 0.02 | 0.652 ± 0.015
AAELRDISQCDV [OPI8 C-terminal 12 aa] | 0.682 ± 0.024 | 0.69 ± 0.088
GKQKQLLFHIGV [HEL2 C-terminal 12 aa] | 0.6865 ± 0.0042 | 0.718 ± 0.035
YIVECIKNVLTK [APL3 C-terminal 12 aa] | 0.686 ± 0.038 | 0.698 ± 0.018
VEVEYLLRRLEE [ARO7 C-terminal 12 aa] | 0.691 ± 0.013 | 0.6589 ± 0.0044
LFYQTIGEFASL [ATF2 C-terminal 12 aa] | 0.706 ± 0.01 | 0.721 ± 0.037
IGISPSQNKWEK [REX3 C-terminal 12 aa] | 0.728 ± 0.02 | 0.7285 ± 0.0071
DHKVGAQVSYKY [MAD2 C-terminal 12 aa] | 0.71 ± 0.0075 | 0.675 ± 0.017
IFNATASNPFGF [SLA1 C-terminal 12 aa] | 0.738 ± 0.029 | 0.747 ± 0.045
KDSELNIKSSKL [STR3 C-terminal 12 aa] | 0.78159 ± 0.00043 | 0.79 ± 0.053
ASLVFPKEKQNV [APC4 C-terminal 12 aa] | 0.718 ± 0.034 | 0.6902 ± 0.00072
TYRLGEWSKISV [POP1 C-terminal 12 aa] | 0.694 ± 0.011 | 0.6913 ± 0.0047
LLHYQSWHFSIY [YJL007C C-terminal 12 aa] | 0.707 ± 0.035 | 0.407 ± 0.026
DIGKKKYSHSSN [RER1 C-terminal 12 aa] | 0.673 ± 0.043 | 0.686 ± 0.049
LSNQNSPLFLYH [YHR175W-A C-terminal 12 aa] | 0.7053 ± 0.0058 | 0.705 ± 0.015
STLAGEWRLIIA [YBR284W C-terminal 12 aa] | 0.498 ± 0.0089 | 0.518 ± 0.019
VPVILREYKGSA [GCD2 C-terminal 12 aa] | 0.725 ± 0.017 | 0.665 ± 0.0075

Sequence | protein stability index [1] | protein stability index (genetic background: wild type)
KESPANDQASNE [MLP2 C-terminal 12 aa] | 0.688 ± 0.0091 | 0.677 ± 0.032
STHGPGIVIDFA [MRPL1 C-terminal 12 aa] | 0.724 ± 0.011 | 0.761 ± 0.089
VRQMNRLATPLI [PUS2 C-terminal 12 aa] | 0.7095 ± 0.0057 | 0.7391 ± 0.0066
ESLSNEAALKAN [RPO31 C-terminal 12 aa] | 0.676 ± 0.027 | 0.397 ± 0.017
TKKSSSHHRTGK [DIG1 C-terminal 12 aa] | 0.697 ± 0.014 | 0.688 ± 0.016
DTSPAQEQSPAN [ARG80 C-terminal 12 aa] | 0.695 ± 0.026 | 0.709 ± 0.013
GIVPGDCLQEYD [FUS1 C-terminal 12 aa] | 0.702 ± 0.0059 | 0.685 ± 0.016
LVIKRRGFEINT [PET122 C-terminal 12 aa] | 0.66 ± 0.015 | 0.721 ± 0.043
PLSYDPLGNLIR [TSR3 C-terminal 12 aa] | 0.7339 ± 0.0027 | 0.728 ± 0.061
LISFGMGNTQVI [CLN2 C-terminal 12 aa] | 0.699 ± 0.031 | 0.6846 ± 0.004
FHHMLIFIILKL [PRM2 C-terminal 12 aa] | 0.203 ± 0.013 | 0.193 ± 0.028
RCGALSEKLVFL [FMT1 C-terminal 12 aa] | 0.694 ± 0.011 | 0.697 ± 0.013
CIAKKVKTYWNK [YIL024C C-terminal 12 aa] | 0.68219 ± 0.00014 | 0.676 ± 0.023
QHYDEYYHELTN [PHO8 C-terminal 12 aa] | 0.6964 ± 0.0064 | 0.68262 ± 0.00046
TAESDDDEEDDE [TIF5 C-terminal 12 aa] | 0.688 ± 0.026 | 0.709 ± 0.052
REVLEQEGRRIE [NBL1 C-terminal 12 aa] | 0.69 ± 0.0073 | 0.693 ± 0.054
EPSLRGHLIFVL [YBR300C C-terminal 12 aa] | 0.515 ± 0.0098 | 0.5178 ± 0.0049
KTITIGNLPNSI [UGA2 C-terminal 12 aa] | 0.7224 ± 0.0026 | 0.715 ± 0.026
LLLAGRKLSLDK [ARK1 C-terminal 12 aa] | 0.694 ± 0.016 | 0.715 ± 0.023
LLYPVKSESSTV [PDR16 C-terminal 12 aa] | 0.68 ± 0.013 | 0.676 ± 0.01
QAYIYIYIHIVN [EST2 C-terminal 12 aa] | 0.195 ± 0.0094 | 0.0717 ± 0.017

Sequence | protein stability index [1] | protein stability index (genetic background: wild type)
DLSTRIYSLAYE [ELP2 C-terminal 12 aa] | 0.71 ± 0.051 | 0.665 ± 0.011
TLQSEINISVKH [ENA5 C-terminal 12 aa] | 0.671 ± 0.0081 | 0.6909 ± 0.0042
IAREIFHNVTNF [SEC39 C-terminal 12 aa] | 0.724 ± 0.025 | 0.695 ± 0.037
HTRRAFLIPFVF [TSC13 C-terminal 12 aa] | 0.547 ± 0.02 | 0.241 ± 0.011
YGSAPSLDSLFL [YJL067W C-terminal 12 aa] | 0.725 ± 0.02 | 0.6981 ± 0.0068
FGSNVNQQFNFN [SRP1 C-terminal 12 aa] | 0.723 ± 0.0085 | 0.719 ± 0.032
TELRHKRTGGKH [ILV2 C-terminal 12 aa] | 0.691 ± 0.0092 | 0.7268 ± 0.002
RDNPILLEDEDP [ULP2 C-terminal 12 aa] | 0.708 ± 0.022 | 0.6747 ± 0.00092
LEKEKLFNNGNH [PRI2 C-terminal 12 aa] | 0.722 ± 0.053 | 0.722 ± 0.055
NYLVYHIEEENH [MNN9 C-terminal 12 aa] | 0.673 ± 0.031 | 0.645 ± 0.052
KYESATASALVN [RPS13 C-terminal 12 aa] | 0.697 ± 0.019 | 0.702 ± 0.015
DFQNCFPRQRIL [DFP2 C-terminal 12 aa] | 0.7035 ± 0.0037 | 0.2848 ± 0.0028
CIISIVVFPTCI [BIO5 C-terminal 12 aa] | 0.286 ± 0.016 | 0.285 ± 0.0088
DVEVVCRQNNFV [YDR327W C-terminal 12 aa] | 0.723 ± 0.0082 | 0.724 ± 0.025
LPYRMLIRMYPV [YEL014C C-terminal 12 aa] | 0.5232 ± 0.0025 | 0.5345 ± 0.0047
GAGVVAAAAMLL [TIR1 C-terminal 12 aa] | 0.7182 ± 0.0061 | 0.713 ± 0.016
GQALLDQFAKFK [LSC1 C-terminal 12 aa] | 0.721 ± 0.058 | 0.687 ± 0.021
SNENARNNNPYL [FLC2 C-terminal 12 aa] | 0.6906 ± 0.0056 | 0.705 ± 0.043
GAIYVLQWANPT [YBR287W C-terminal 12 aa] | 0.667 ± 0.025 | 0.662 ± 0.061
VLAILFYPAWVE [YGR160W C-terminal 12 aa] | 0.5 ± 0.0098 | 0.529 ± 0.0053
